Data from patent US20200408765A1 (Sanofi, published 2020).

Biological target: human CD38 (human, UniProt P28907 1-300)
Test: cell-based or functional assay

B1: chimeric 38SB31 (antibody, V domains shown)
VH: DVKLVESGGGLVKPGGSLKLSCEASGFTFSSYTLSWVRQTPETRLEWVATISIGGRYTYYPDSVEGRFTISRDNAKNTLYLQMNSLKSEDTAMYYCTRDFNGYSDFWGQGTTLTVSS
VL: DTVMTQSHKFISTSVGDRVSITCKASQVVGSAVAWYQQKPGQSPKLLIYWASTRHTGVPDRFTGSGSGTDFTLTISNVQSEDLADYFCQQYNSYPYTFGGGTKLEIKR
B1 was tested, and the “CDC: specific viability of Daudi cells with 1.25 µg/mL or higher antibody and complement” value was 53%.
